In publication PMC2953525, “Subtle Alterations in PCNA-Partner Interactions Severely Impair DNA Replication and Repair” (PLoS Biology, 2010):

Assays:
Conditions in all cases: partners not purified
[1] = molecular target: T1, pol30-Pol32E9 (yeast, UniProt P15873 1-258, IDCL DIDADFLKIEEL to DNDVDSLKIIEL); experiment: two-hybrid; quantitative Y2H: generation time of the YRG2 strains in liquid SC-Leu-Trp-His, given relative to cells expressing WT PCNA; average of at least 3 experiments
T1 construct: PCNA (POL30), yeast; source: yeast two-hybrid fusion (pAD-GAL4, strain YRG2)
T1 sequence: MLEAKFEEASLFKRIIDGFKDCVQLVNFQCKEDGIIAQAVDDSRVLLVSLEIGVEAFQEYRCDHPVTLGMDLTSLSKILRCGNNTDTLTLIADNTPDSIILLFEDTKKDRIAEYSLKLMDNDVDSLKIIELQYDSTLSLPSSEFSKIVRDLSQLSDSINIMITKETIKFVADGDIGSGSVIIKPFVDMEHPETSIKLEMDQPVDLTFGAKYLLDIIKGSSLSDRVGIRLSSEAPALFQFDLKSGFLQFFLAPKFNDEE

[2] = molecular target: T2, pol30-Pol32E5 (yeast, UniProt P15873 1-258, IDCL DIDADFLKIEEL to DADNDFLKISEL); experiment: as above
T2 construct: PCNA (POL30), yeast; source: yeast two-hybrid fusion (pAD-GAL4, strain YRG2)
T2 sequence: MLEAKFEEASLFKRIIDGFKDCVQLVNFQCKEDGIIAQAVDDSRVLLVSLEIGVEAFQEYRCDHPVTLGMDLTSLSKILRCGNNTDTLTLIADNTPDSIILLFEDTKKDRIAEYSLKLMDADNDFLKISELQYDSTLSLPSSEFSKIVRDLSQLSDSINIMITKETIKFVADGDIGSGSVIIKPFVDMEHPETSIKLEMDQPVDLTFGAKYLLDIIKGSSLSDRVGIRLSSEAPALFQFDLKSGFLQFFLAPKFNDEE

[3] = molecular target: T3, pol30-Rad30E2 (yeast, UniProt P15873 1-258, IDCL DIDADFLKIEEL to DDDWDFLKILEL); experiment: as above
T3 construct: PCNA (POL30), yeast; source: yeast two-hybrid fusion (pAD-GAL4, strain YRG2)
T3 sequence: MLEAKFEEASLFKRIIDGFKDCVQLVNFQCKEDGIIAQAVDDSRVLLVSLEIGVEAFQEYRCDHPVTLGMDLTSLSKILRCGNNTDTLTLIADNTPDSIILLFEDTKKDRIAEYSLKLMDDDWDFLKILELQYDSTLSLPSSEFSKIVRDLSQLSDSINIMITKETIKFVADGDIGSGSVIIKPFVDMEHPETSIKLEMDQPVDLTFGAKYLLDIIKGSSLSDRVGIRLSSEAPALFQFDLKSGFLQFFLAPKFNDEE

[4] = molecular target: T4, pol30-79 (yeast, UniProt P15873 1-258, IDCL DIDADFLKIEEL to DIDADFAKAEEL); experiment: as above
T4 construct: PCNA (POL30), yeast; the changes are then L126A and I128A; also called PCNA79; source: yeast two-hybrid fusion (pAD-GAL4, strain YRG2)
T4 sequence: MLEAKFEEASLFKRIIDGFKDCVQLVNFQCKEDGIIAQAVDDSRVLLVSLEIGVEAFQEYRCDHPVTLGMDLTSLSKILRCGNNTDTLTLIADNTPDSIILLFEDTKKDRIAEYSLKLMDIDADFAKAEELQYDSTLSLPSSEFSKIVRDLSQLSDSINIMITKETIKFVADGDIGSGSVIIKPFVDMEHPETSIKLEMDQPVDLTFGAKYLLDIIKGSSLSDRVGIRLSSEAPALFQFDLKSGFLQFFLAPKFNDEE

[5] = molecular target: T5, pol30-Rad27L2 (yeast, UniProt P15873 1-258, IDCL DIDADFLKIEEL to D––VDTLKITEL); experiment: two-hybrid; pAD-GAL4-PCNA WT or mutant (called bait) and pBD-GAL4-partner (called prey) in strain YRG2; 10-fold serial dilutions spotted on SC-Leu-Trp-His plates, 30°C, 3 d; growth similar to WT PCNA is denoted 1
T5 construct: PCNA (POL30), yeast; two residues after the first aspartic acid of the IDCL are deleted; source: yeast two-hybrid fusion (pAD-GAL4, strain YRG2)
T5 sequence: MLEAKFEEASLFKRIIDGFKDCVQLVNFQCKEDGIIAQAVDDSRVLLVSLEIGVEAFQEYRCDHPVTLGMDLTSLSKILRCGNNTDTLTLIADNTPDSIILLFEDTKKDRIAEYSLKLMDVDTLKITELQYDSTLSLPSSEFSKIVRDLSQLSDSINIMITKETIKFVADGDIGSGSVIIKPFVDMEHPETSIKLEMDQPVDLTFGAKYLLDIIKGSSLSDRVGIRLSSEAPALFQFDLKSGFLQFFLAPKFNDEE

[6] = molecular target: T6, pol30-Rad27L1 (yeast, UniProt P15873 1-258, IDCL DIDADFLKIEEL to D––VDILKIGEL); experiment: as above
T6 construct: PCNA (POL30), yeast; two residues after the first aspartic acid of the IDCL are deleted; source: yeast two-hybrid fusion (pAD-GAL4, strain YRG2)
T6 sequence: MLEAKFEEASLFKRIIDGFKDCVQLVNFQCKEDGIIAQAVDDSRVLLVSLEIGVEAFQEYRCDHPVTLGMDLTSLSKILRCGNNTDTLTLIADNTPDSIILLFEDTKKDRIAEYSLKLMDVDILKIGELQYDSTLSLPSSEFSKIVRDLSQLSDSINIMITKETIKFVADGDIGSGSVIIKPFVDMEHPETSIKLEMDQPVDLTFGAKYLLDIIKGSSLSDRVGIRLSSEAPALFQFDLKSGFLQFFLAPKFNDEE

[7] = molecular target: T7, pol30-Rad30E9 (yeast, UniProt P15873 1-258, IDCL DIDADFLKIEEL to DNDWDFLKIDEL); experiment: two-hybrid; quantitative Y2H: generation time of the YRG2 strains in liquid SC-Leu-Trp-His, given relative to cells expressing WT PCNA; average of at least 3 experiments
T7 construct: PCNA (POL30), yeast; also called Pol30-Rad30E9p; source: yeast two-hybrid fusion (pAD-GAL4, strain YRG2)
T7 sequence: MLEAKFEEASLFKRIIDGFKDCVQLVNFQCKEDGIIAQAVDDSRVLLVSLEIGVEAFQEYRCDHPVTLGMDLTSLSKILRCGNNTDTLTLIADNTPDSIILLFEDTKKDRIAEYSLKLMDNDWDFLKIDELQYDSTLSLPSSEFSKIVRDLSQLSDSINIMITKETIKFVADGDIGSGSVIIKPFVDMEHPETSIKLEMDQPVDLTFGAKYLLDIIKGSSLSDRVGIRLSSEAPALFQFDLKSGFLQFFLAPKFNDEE

B1: Pol32 (natural protein, yeast, UniProt P47110 1-350, looked up)
chain: MDQKASYFINEKLFTEVKPVLFTDLIHHLKIGPSMAKKLMFDYYKQTTNAKYNCVVICCYKDQTIKIIHDLSNIPQQDSIIDCFIYAFNPMDSFIPYYDIIDQKDCLTIKNSYELKVSESSKIIERTKTLEEKSKPLVRPTARSKTTPEETTGRKSKSKDMGLRSTALLAKMKKDRDDKETSRQNELRKRKEENLQKINKQNPEREAQMKELNNLFVEDDLDTEEVNGGSKPNSPKETDSNDKDKNNDDLEDLLETTAEDSLMDVPKIQQTKPSETEHSKEPKSEEEPSSFIDEDGYIVTKRPATSTPPRKPSPVVKRALSSSKKQETPSSNKRLKKQGTLESFFKRKAK
notes: Pol32 (DNA polymerase subunit), yeast; also called pBD-Pol32; source: yeast two-hybrid fusion (pBD-GAL4, strain YRG2)
B1 was tested, and the “fold change in affinity relative to WT PCNA (Y2H generation time)” value [1] was 1.3 fold, the “fold change in affinity relative to WT PCNA (Y2H generation time)” value [2] was 1.5 fold and the “fold change in affinity relative to WT PCNA (Y2H generation time)” value [3] was 0.4 fold. The “fold change in affinity relative to WT PCNA (Y2H generation time)” value [4] was 0.3 fold.

B2: Rad30 (natural protein, yeast, UniProt Q04049 1-632, looked up)
chain: MSKFTWKELIQLGSPSKAYESSLACIAHIDMNAFFAQVEQMRCGLSKEDPVVCVQWNSIIAVSYAARKYGISRMDTIQEALKKCSNLIPIHTAVFKKGEDFWQYHDGCGSWVQDPAKQISVEDHKVSLEPYRRESRKALKIFKSACDLVERASIDEVFLDLGRICFNMLMFDNEYELTGDLKLKDALSNIREAFIGGNYDINSHLPLIPEKIKSLKFEGDVFNPEGRDLITDWDDVILALGSQVCKGIRDSIKDILGYTTSCGLSSTKNVCKLASNYKKPDAQTIVKNDCLLDFLDCGKFEITSFWTLGGVLGKELIDVLDLPHENSIKHIRETWPDNAGQLKEFLDAKVKQSDYDRSTSNIDPLKTADLAEKLFKLSRGRYGLPLSSRPVVKSMMSNKNLRGKSCNSIVDCISWLEVFCAELTSRIQDLEQEYNKIVIPRTVSISLKTKSYEVYRKSGPVAYKGINFQSHELLKVGIKFVTDLDIKGKNKSYYPLTKLSMTITNFDIIDLQKTVVDMFGNQVHTFKSSAGKEDEEKTTSSKADEKTPKLECCKYQVTFTDQKALQEHADYHLALKLSEGLNGAEESSKNLSFGEKRLLFSRKRPNSQHTATPQKKQVTSSKNILSFFTRKK
notes: Rad30 (DNA polymerase), yeast; also called pBD-Rad30; source: yeast two-hybrid fusion (pBD-GAL4, strain YRG2)
With B2 the “fold change in affinity relative to WT PCNA (Y2H)” value [5] was 0.5 fold, the “fold change in affinity relative to WT PCNA (Y2H)” value [6] was 0.4 fold and the “fold change in affinity relative to WT PCNA (Y2H generation time)” value [7] was 1.6 fold. The “fold change in affinity relative to WT PCNA (Y2H generation time)” value [3] was 1.4 fold.
